The text below walks through data of patent US10208087B2, “Peptides” (Hoffmann-La Roche Inc., priority 2014, dated 2019).

Structures can show the parent of a compound that is named as a salt. Starred links: 1 amine or outer side, 2 acyl side, 3 side chain; linkers in the order of their positions; H or OH if unused. Non-standard residues stand in square brackets, D forms with d. Residues, ends and D or L forms follow the SMILES beside them. No end group written: not given here. *: point of attachment. Elaidic = elaidic acid acyl on Lys side chain, CCCCCCCC/C=C/CCCCCCCC(=O)*; MetSta(3S,4S) = CSCC[C@H](N[*:1])[C@@H](O)CC(=O)[*:2]; Palmitoleoyl = CCCCCC/C=C\CCCCCCCC(=O)*; Sta = CC(C)C[C@H](N)[C@@H](O)CC(=O)O; Palmitoyl = CCCCCCCCCCCCCCCC(=O)*; PEG4 = NCCOCCOCCOCCOCCC(=O)O; PEG3 = NCCOCCOCCOCCC(=O)O; Nle = CCCC[C@H](N)C(=O)O; Palm = palmityl

The target in the first assay is T1, BACE1 (Homo sapiens, UniProt P56817).
T1 construct: Human HEK293 cells which are stably transfected with a vector expressing a cDNA of the human APP wt gene (APP695); endogenous in cells; host or cells: HEK293 cells stably transfected with human APP695 wt
T1 sequence (P56817 46-501): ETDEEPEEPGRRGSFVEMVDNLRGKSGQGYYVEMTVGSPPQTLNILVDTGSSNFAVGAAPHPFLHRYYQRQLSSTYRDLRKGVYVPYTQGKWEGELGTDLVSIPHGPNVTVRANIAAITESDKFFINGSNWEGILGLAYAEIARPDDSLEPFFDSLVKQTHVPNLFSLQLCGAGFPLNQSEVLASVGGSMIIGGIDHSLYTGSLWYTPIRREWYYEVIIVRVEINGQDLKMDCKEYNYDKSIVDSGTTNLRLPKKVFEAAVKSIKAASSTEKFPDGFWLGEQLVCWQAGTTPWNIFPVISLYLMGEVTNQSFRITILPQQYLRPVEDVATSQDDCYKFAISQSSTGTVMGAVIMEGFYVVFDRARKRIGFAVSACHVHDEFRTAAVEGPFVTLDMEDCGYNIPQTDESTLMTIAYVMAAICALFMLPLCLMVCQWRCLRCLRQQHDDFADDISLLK
The assay can be described thus: Cellular Aβ-lowering Assay. The assay is classed as cell-based. To be noted: Aβ40 in culture supernatant (ELISA) of human HEK293 cells stably expressing human APP wt (APP695); 18-20 hrs incubation. As to the method:
The compounds were investigated in accordance with the test given hereinafter. Cellular Aβ-lowering Assay: Human HEK293 cells which are stably transfected with a vector expressing a cDNA of the human APP wt gene (APP695) were used to assess the potency of the compounds in a cellular assay. […] After blocking of non-specific binding sites with e.g. 1% BSA and washing, the culture supernatants were added in suitable dilutions together with a horseradish peroxidase-coupled Aβ detection antibody (e.g., antibody 4G8, Senetek, Maryland Heights, Mo.) and incubated for 5 to 7 hrs. Subsequently the wells of the microtiter plate were washed extensively with Tris-buffered saline containing 0.05% Tween 20 and the assay was developed with tetramethylbenzidine/H2O2 in citric acid buffer. After stopping the reaction with one volume 1 N H2SO4 the reaction was measured in an ELISA reader at 450 nm wavelength. The concentrations of Aβ in the culture supernatants were calculated from a standard curve obtained with known amounts of pure Aβ peptide.
Background: An ELISA detects its analyte on a solid surface through an enzyme-linked reagent.
`CCCCCCCCCCCCCCCC(=O)NCCCC[C@H](NC(=O)[C@H](Cc1ccccc1)NC(=O)[C@H](CCC(=O)O)NC(=O)[C@H](C)NC(=O)[C@@H](NC(=O)C[C@H](O)[C@H](CC(C)C)NC(=O)[C@H](CC(N)=O)NC(=O)[C@@H](NC(=O)[C@H](CCC(=O)O)NC(=O)CNC(=O)[C@H](CCCC)NC(=O)CNC(=O)[C@H](CC(C)C)NC(=O)[C@@H]1CCCN1C(=O)[C@@H](NC(=O)[C@H](Cc1ccccc1)NC(=O)[C@H](Cc1ccc(O)cc1)NC(=O)[C@@H]1CCCN1C(=O)[C@@H](N)Cc1ccc(O)cc1)[C@@H](C)CC)C(C)C)C(C)C)C(N)=O` [Example 6, Tyr-Pro-Tyr-Phe-Ile-Pro-Leu-Gly-Nle-Gly-Glu-Val-Asn-Sta-Val-Ala-Glu-Phe-Lys(Palmityl)-NH2 x TFA]: the IC50 worked out at 120 nM.
The molecule `CCCCCCCCCCCCCCCC(=O)NCCCC[C@H](NC(=O)[C@H](Cc1ccccc1)NC(=O)[C@H](CCC(=O)O)NC(=O)[C@H](C)NC(=O)[C@@H](NC(=O)C[C@H](O)[C@H](CC(C)C)NC(=O)[C@H](CC(N)=O)NC(=O)[C@@H](NC(=O)[C@H](CCC(=O)O)NC(=O)CNC(=O)[C@H](CO)NC(=O)CNC(=O)[C@H](CC(C)C)NC(=O)[C@@H]1CCCN1C(=O)[C@@H](NC(=O)[C@H](Cc1ccccc1)NC(=O)[C@H](Cc1ccc(O)cc1)NC(=O)[C@@H]1CCCN1C(=O)[C@@H](N)Cc1ccc(O)cc1)[C@@H](C)CC)C(C)C)C(C)C)C(N)=O` [Example 9, Tyr-Pro-Tyr-Phe-Ile-Pro-Leu-Gly-Ser-Gly-Glu-Val-Asn-Sta-Val-Ala-Glu-Phe-Lys(Palmityl)-NH2 x TFA] (H-YPYFIPLGSGEVN[Sta]VAEFK(Palmitoyl)-NH2; N-terminus assumed) had an IC50 of 41 nM.
In the case of `CCCCCCCCCCCCCCCC(=O)NCCCC[C@H](NC(=O)[C@@H](Cc1ccccc1)NC(=O)[C@H](CCC(=O)O)NC(=O)[C@H](C)NC(=O)[C@@H](NC(=O)C[C@H](O)[C@H](CCSC)NC(=O)[C@H](CC(N)=O)NC(=O)[C@@H](NC(=O)[C@H](CCC(=O)O)NC(=O)CCOCCOCCOCCNC(=O)[C@H](CC(C)C)NC(=O)[C@@H]1CCCN1C(=O)[C@@H](NC(=O)[C@H](Cc1ccccc1)NC(=O)[C@H](Cc1ccc(O)cc1)NC(=O)[C@@H]1CCCN1C(=O)[C@@H](N)Cc1ccc(O)cc1)[C@@H](C)CC)C(C)C)C(C)C)C(N)=O` [Example 33, Tyr-Pro-Tyr-Phe-Ile-Pro-Leu-(PEG)3-Glu-Val-Asn-MetSta-Val-Ala-Glu-DPhe-Lys(Palm)-NH2 x TFA] (H-YPYFIPL[PEG3]EVN[MetSta(3S,4S)]VAE[dF]K(Palmitoyl)-NH2; N-terminus assumed), half-maximal inhibition (IC50) was put at 41 nM.

The target in another assay is BACE1 (UniProt P56817 46-501, limits assumed). The assay can be described thus: cell-based or functional assay.
Sequence of BACE1 (UniProt P56817 46-501, limits assumed) (P56817 46-501 limits assumed): as the sequence (P56817 46-501) above
Conditions: not given
With YPYFIPL[PEG3]EVN[MetSta(3S,4S)]VAE[dF]K(Palm)-NH2 (also: TFA salt) [YPYFIPL-PEG(3)-EVN-MetSta-VAE-DPhe-K(Palm)-NH2 x TFA], the “IC50, cellular Aβ-lowering assay (Aβ40 in supernatant of HEK293 cells expressing human APP695)” value (“IC50, cellular Aβ-lowering assay” below) worked out at 41 nM.
On the same count and under the same terms, for YPYFIPLGSGEVN[Sta]VAEFK(Palm)-NH2 (also: TFA salt) [YPYFIPL-GSG-EVN-Sta-VAEFK(Palm)-NH2 x TFA] the value was 41 nM; for YPYFIPLGGGEVN[Sta]VAEFK(Palm)-NH2 (also: TFA salt) [YPYFIPL-GGG-EVN-Sta-VAEFK(Palm)-NH2 x TFA], 120 nM.
Same read-out and setting: as for YPYFIPLAGGEVN[Sta]VAEFK(Palm)-NH2 (also: TFA salt) [YPYFIPL-AGG-EVN-Sta-VAEFK(Palm)-NH2 x TFA], the figure is 53 nM.
Still for that read-out and setting: as for YPKFIPLG[dK]GEVN[Sta]VAE[dP]K(Oleic)-NH2 (also: 3TFA salt) [YPKFIPL-GkG-EVN-Sta-VAEp-K(Oleic)-NH2 x 3TFA], the figure is 6.02 nM; as for YPYFIPLG[Nle]GEVN[Sta]VAEFK(Palm)-NH2 (also: TFA salt) [YPYFIPL-G-Nle-G-EVN-Sta-VAEFK(Palm)-NH2 x TFA], 120 nM; as for YPYFIPLG[dA][dK]EVN[Sta]VAEFK(Palm)-NH2 (also: TFA salt) [YPYFIPL-Gak-EVN-Sta-VAEFK(Palm)-NH2 x TFA], 98 nM.
With YPKFIPLG[dK]GEVN[Sta]VAE[dP]K(Palm)-NH2 (also: 3TFA salt) [YPKFIPL-GkG-EVN-Sta-VAEp-K(Palm)-NH2 x 3TFA], the “IC50, cellular Aβ-lowering assay” value stood at 1.37 nM.
In the case of YPYFIPLG[dP]GEVN[Sta]VAEFK(Palm)-NH2 (also: TFA salt) [YPYFIPL-GpG-EVN-Sta-VAEFK(Palm)-NH2 x TFA], the “IC50, cellular Aβ-lowering assay” value is 48 nM.
Still for that read-out and setting: as for YPYFIPLGGSEVN[Sta]VAEFK(Palm)-NH2 (also: TFA salt) [YPYFIPL-GGS-EVN-Sta-VAEFK(Palm)-NH2 x TFA], the figure is 53 nM; as for YPKFIPLG[dK]GEVN[Sta]VAE[dP]K(Myristoleic)-NH2 (also: 3TFA salt) [YPKFIPL-GkG-EVN-Sta-VAEp-K(Myristoleic)-NH2 x 3TFA], 208 nM; as for YPYFIPLG[dK]GEVN[Sta]VAEFK(Palm)-NH2 (also: TFA salt) [YPYFIPL-GkG-EVN-Sta-VAEFK(Palm)-NH2 x TFA], 64 nM.
On the same count and under the same terms, as for YPKFIPLG[dK]GEVN[Sta]VAE[dP]K(Elaidic)-NH2 (also: 3TFA salt) [YPKFIPL-GkG-EVN-Sta-VAEp-K(Elaidic)-NH2 x 3TFA], the figure is 3.02 nM; as for YPYFIPLGPGEVN[Sta]VAEFK(Palm)-NH2 (also: TFA salt) [YPYFIPL-GPG-EVN-Sta-VAEFK(Palm)-NH2 x TFA], 140 nM; as for YPYFIPL[PEG4]EVN[MetSta(3S,4S)]VAE[dF]K(Palm)-NH2 (also: TFA salt) [YPYFIPL-PEG(4)-EVN-MetSta-VAE-DPhe-K(Palm)-NH2 x TFA], 18 nM.
Still for that read-out and setting: as for YPKFIPLG[dK]GEVN[Sta]VAE[dP]K(Erucic)-NH2 (also: 3TFA salt) [YPKFIPL-GkG-EVN-Sta-VAEp-K(Erucic)-NH2 x 3TFA], the figure is 1.15 nM.
As for YPKFIPLG[dK]GEVN[Sta]VAE[dP]K(Vaccenic)-NH2 (also: 3TFA salt) [YPKFIPL-GkG-EVN-Sta-VAEp-K(Vaccenic)-NH2 x 3TFA], the “IC50, cellular Aβ-lowering assay” value amounted to 2.68 nM.
On the same count and under the same terms, for YPKFIPLG[dK]GEVN[Sta]VAE[dP]K(Palmitoleoyl)-NH2 (also: 3TFA salt) [YPKFIPL-GkG-EVN-Sta-VAEp-K(Palmitoleic)-NH2 x 3TFA] the value was 19.9 nM.

As usually defined, the IC50 is the midpoint of a concentration-inhibition curve. The low end stands for higher potency, the high end for lower potency.
